In publication PMC2878840:

Legend:
[1] = ZO-1 immunoprecipitation, Western blot; conditions: glycan lost; control: wild type E-cadherin (E-cad-myc)
[2] = TER of confluent monolayers on Transwells; conditions: glycan lost; control: wild type E-cadherin (E-cad-myc)
[3] = anti-CNX Western blot normalised to actin; conditions: glycan lost; control: mock-transfected cells
[4] = confocal immunofluorescence, x-z sections; conditions: glycan lost; control: wild type E-cadherin
[5] = Western blot normalised to ZO-1 or claudin-1; conditions: glycan lost; control: wild type E-cadherin (E-cad-myc)

B1: E-cadherin: V13 (protein)
parent chain: MGPWSRSLSALLLLLQVSSWLCQEPEPCHPGFDAESYTFTVPRRHLERGRVLGRVNFEDCTGRQRTAYFSLDTRFKVGTDGVITVKRPLRFHNPQIHFLVYAWDSTYRKFSTKVTLNTVGHHHRPPPHQASVSGIQAELLTFPNSSPGLRRQKRDWVIPPISCPENEKGPFPKNLVQIKSNKDKEGKVFYSITGQGADTPPVGVFIIERETGWLKVTEPLDRERIATYTLFSHAVSSNGNAVEDPMEILITVTDQNDNKPEFTQEVFKGSVMEGALPGTSVMEVTATDADDDVNTYNAAIAYTILSQDPELPDKNMFTINRNTGVISVVTTGLDRESFPTYTLVVQAADLQGEGLSTTATAVITVTDTNDNPPIFNPTTYKGQVPENEANVVITTLKVTDADAPNTPAWEAVYTILNDDGGQFVVTTNPVNNDGILKTAKGLDFEAKQQYILHVAVTNVVPFEVSLTTSTATVTVDVLDVNEAPIFVPPEKRVEVSEDFGVGQEITSYTAQEPDTFMEQKITYRIWRDTANWLEINPDTGAISTRAELDREDFEHVKNSTYTALIIATDNGSPVATGTGTLLLILSDVNDNAPIPEPRTIFFCERNPKPQVINIIDADLPPNTSPFTAELTHGASANWTIQYNDPTQESIILKPKMALEVGDYKINLKLMDNQNKDQVTTLEVSVCDCEGAAGVCRKAQPVEAGLQIPAILGILGGILALLILILLLLLFLRRRAVVKEPLLPPEDDTRDNVYYYDEEGGGEEDQDFDLSQLHRGLDARPEVTRNDVAPTLMSVPRYLPRPANPDEIGNFIDENLKAADTDPTAPPYDSLLVFDYEGSGSEAASLSSLNSSESDKDQDYDYLNEWGNRFKKLADMYGGGEDD
other: claudin-1 in ZO-1 complexes [1]: increases | other: transepithelial resistance [2]: increases | other: calnexin expression (UPR marker) [3]: no change | other: apical localisation of gp135 and ZO-1 [4]: increases | other: Ser-phosphorylation of ZO-1 and claudin-1 [5]: increases
